According to US20240000932A1 (BOOSTIMMUNE, published 2024):

Target: T1, recombinant human TCTP (translationally controlled tumor protein) (human, UniProt P13693 1-172)
T1 construct: The ELISA is only said to be 'on TCTP', and the screening beads were coated with human TCTP; also called HRF; Tpt1
T1 sequence: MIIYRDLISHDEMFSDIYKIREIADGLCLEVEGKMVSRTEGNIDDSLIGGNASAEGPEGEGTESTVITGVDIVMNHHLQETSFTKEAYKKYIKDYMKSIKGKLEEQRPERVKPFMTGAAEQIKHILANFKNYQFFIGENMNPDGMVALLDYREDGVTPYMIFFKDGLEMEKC
Assay: ELISA on TCTP, after single B cell screening with human TCTP coated beads
Experimental: Transgenic mice for preparing fully human antibodies (CAMOUSE®) were immunized by using a recombinant human TCTP (SEQ ID NO: 36), and standard single B cell screening method was used. Single viable B cell arrays were prepared by applying splenocyte of immunized mice to microarray chips. TCTP-specific antibody secreting single cells were screened on the microarray chip using human TCTP coated beads and then recovered by micromanipulation, mRNA were recovered from the single cells, and cDNA sequences encoding the variable regions of the IgG heavy (VH) and light (VL) chains were amplified by RT-PCR. The recombinant antibodies containing the VH and VL sequences are purified and tested by ELISA on TCTP. As a result, antibody 1-2-4 was obtained. The variable region sequences of antibody 1-2-4 are as follows. The antibody sequences for 1-2-4 were obtained from CAMOUSE® in cooperation with CAMAB (China) and GenScript (China).

B1: anti-TCTP human monoclonal antibody 1-2-4 (antibody, V domains shown)
VH: QVQLVQSGAEVKKPGASVKVSCKASGYTFFSYAMHWVRQAPGQRLEWMGWINAGNGNTKYSQKFQDRVTITRDTSATTAYMELSSLRSEDTAVYYCASWVFDYWGQGTPVTVSS
VL: DIVMTQTPLSSLVTLGQPASISCRSSQSLVHRDGNTYLSWLQQRPGQPPRLLIYKISNRFFGVPDRFSGSGAGTDFTLKISRVEAEDVGVYYCMQATQFPHTFGQGTKLEIK
binding result: binds
